# B1: myoglobin: intermediate sized protein released from cubic phase (protein, UniProt P68082 2-154, looked up)
# Myoglobin: GLSDGEWQQVLNVWGKVEADIAGHGQEVLIRLFTGHPETLEKFDKFKHLKTEAEMKASEDLKKHGTVVLTALGGILKKKGHHEAELKPLAQSHATKHKIPIKYLEFISDAIIHVLHSKHPGDFGADAQGAMTKALELFRNDIAAKYKELGFQG
# What was measured:
# [1] = assay type: in vitro ADME
# From the text: FIG. 24 presents the cumulative transdermal transport of 1 wt % desmopressin, (□) via water solution, (Δ) via HII mesophase.
# The applicability and efficiency the HII mesophase as carriers for a transdermal delivery of desmopressin as model peptide drug was studied. Such delivery was especially relevant since the high hydrophilicity of this peptide was the main reason for its uncontrolled fast release when used without a proper carrier.
# In the case of bulk hexagonal mesophase, reduced values of steady-state flux were obtained for the drug and its permeability coefficients through the skin, as compared to a water solution. In other words, the peptide molecules penetrated more easily and freely through the skin from water solution, than from hexagonal phase vehicles. […] The drug probably accumulated in microfissures and in a three-dimensional network of thin threads of the skin.
# [2] = cubic phase; cited from earlier work
# [3] = ATR-FTIR secondary structure of LSZ as a function of temperature; assay type: physicochemical
# Procedure: Proteins in general are known for their low stability at high temperatures.
# Further temperature increase confirmed the diverse denaturation mechanism. Up to 73° C., the α-helix and the random coil contents decreased in favor of γ-turn formation.
# [4] = ATR-FTIR secondary structure analysis of LSZ (amide I' band) as a function of pH; assay type: physicochemical
# Procedure: The spectra were recorded with 50 scans, with spectral resolution of 2 cm^−1, at room temperature.
# [5] = ATR-FTIR secondary structure of LSZ under urea denaturation; assay type: physicochemical
# From the text: The α-helix to β-sheet transition in proteins is highly important for understanding their folding and biological functions. It is recognized that the α→β transition is probably responsible for several conformational diseases, such as Alzheimer disease, where the α-helical forms are normal and the β-sheet forms are amyloidogenic. Urea is an accepted denaturating agent, which may act in several molecular mechanisms. These possible pathways include direct interactions of urea with the protein, indirect effects by decreasing water-water interactions and hydrogen bond strength, and allowing the exposure of nonpolar groups of the protein to the solvent and combinations thereof.
# The β-sheet formation was detected by FTIR analysis at 1620 cm^−1 and it was associated with aggregation of the protein, caused by denaturation, in accordance with the literature. In contrast, within the hexagonal mesophase the α-helical conformation stayed intact up to 4M of urea.
# [6] = ATR-FTIR conformational stability of calcitonin in HII mesophase; assay type: physicochemical
# From the text: In order to overcome this problem, calcitonin was solubilized into the reverse hexagonal mesophase of the invention, as disclosed herein. Transition from random coil, which is characteristic to the stable and soluble state of the peptide to α helix and mainly β-sheet, which are responsible for the unfavorable aggregation, was detected using ATR-FTIR (FIG. 31). It is well documented that calcitonin is extremely unstable in aqueous solutions, which is reflected by a significant decrease of random coil content and simultaneous increase in the concentration of α helix and β-sheet. At room temperature this trend is observed already after ˜2 days. Using the ATR-FTIR technique, the embedment of calcitonin into the aqueous channels of HII mesophase was explored, indicating a significant improvement in the stability of the peptide (FIGS. 32a-c). […] Therefore, the opposite tendency of calcitonin stabilization in the hexagonal phase was detected, as compared to a water solution. Only after 27 days, the peptide stability decreased, as reflected by the decrease of the random coil content.
# [7] = In vivo oral delivery of calcitonin in rats, plasma calcium levels; design: species or system Sprague-Dawley rats; conditions: calcitonin solubilized in hexagonal liquid crystals and/or hexosomes
# Procedure: Male Sprague-Dawley rats (Orient Bio Inc, Korea), 7- to 8-weeks old, weighing 250-310 g, were used in the experiments. Animals were housed under a 12-h light-dark cycle, with food and water ad libitum. All animal handling was in accordance with the guidelines of Animal Care and Use Committee of the Korean Institute of Science and Technology.
# The technique of cannulation of the jugular vein and arterial has been developed to allow serial blood sampling from an animal. After anesthesia with 0.4 ml/kg of intraperitoneally administered Rumpun/Zoletile [1:2 (v/v)], an incision was made in the skin just above the right clavicle. After preparation of the jugular vein, it was ligated at the distal side. A cannula filled with heparinized normal saline (10 units/ml) was inserted until the tip reached into the right atrium. Arterial cannulation was performed according to the same methods. […]
# Calcium concentration at time zero was normalized as the reference level. […] The calcium level in plasma sample was determined using a commercial Calcium Colorimetric Assay Kit (K380-250, Biovision, Mountain View, Calif., USA). In short, plasma calcium was treated with o-cresolphthalein to form a purple colored complex which was measured at 575 nm. […]
# [8] = water solution, after urea denaturation (starting from 2M urea)
# [9] = water solution, before the urea-induced decrease
molecule,measurement,setting,value
NC(=O)CC[C@@H]1NC(=O)[C@H](Cc2ccccc2)NC(=O)[C@H](Cc2ccc(O)cc2)NC(=O)CCSSC[C@@H](C(=O)N2CCC[C@H]2C(=O)N[C@H](CCCN=C(N)N)C(=O)NCC(N)=O)NC(=O)[C@H](CC(N)=O)NC1=O [desmopressin],permeability coefficients through the skin,[1],reduced
same,release via the HII mesophase,[1],sustained release
same,steady-state flux,[1],reduced
LSZ: hydrophilic protein (14.4 KDa) used as model protein solubilized in the HII mesophase,time in which the bulk of the release occurred,[2],a week
same,temperature from which LSZ denaturation occurs,[3]; D2O,63 °C
same,random coil content,"[3]; D2O, 60° C.",~0.3
same,α-helix content,"[3]; D2O, 60° C.",~0.7
same,random coil content,"[3]; D2O, 65° C.",0.62
same,α-helix content,"[3]; D2O, 65° C.",0.34
same,α-helix content,"[3]; LSZ loaded HII mesophase, 60° C.",~0.7
same,γ-turn content,"[3]; LSZ loaded HII mesophase, 63-65° C.",0.1
same,α-helix content,"[3]; LSZ loaded HII mesophase, 65° C.",0.61
same,γ-turn content,"[3]; LSZ loaded HII mesophase, before 63-65° C.",0
same,random coil content,"[3]; LSZ loaded HII mesophase, between 63-65° C.",preserved
same,secondary structure on incorporation into hexagonal phase,"[4]; HII mesophase, pH 1.5 to 6",no modifications
same,random coil structure content,"[4]; LSZ solution in D2O, pH 1.5",0.22
same,α-helix content,"[4]; LSZ solution in D2O, pH 1.5",0.78
same,random coil structure content,"[4]; LSZ solution in D2O, pH 11.14",0.4
same,random coil content within HII mesophases compared to D2O,[4]; pH from 6 to 11,lower
same,α-helix content within HII mesophases compared to D2O,[4]; pH from 6 to 11,considerably higher
same,β-sheet content within HII mesophase compared to water solution,[5]; urea,significantly lower
same,random coil content,[5]; [8],0.03
same,α-helix content,[5]; [8],0.21
same,random coil content,[5]; [9],0.27
same,α-helix content,[5]; [9],0.73
same,random coil content,"[5]; water solution, urea (comparison with HII)",0.06
same,β-sheet content,"[5]; water solution, urea denaturation",up to 0.69
same,random coil content,"[5]; within the HII mesophase, urea",0.18
same,urea concentration up to which α-helical conformation stayed intact,[5]; within the hexagonal mesophase,up to 4 M
calcitonin,random coil structure content,"[6]; in HII mesophase, pH 3 and 5, 27th day",~100%
same,content of α helix and β-sheet forms as a function of time,"[6]; in HII mesophase, pH 3 to 9",drastically decreased
same,time after which the peptide stability decreased,[6]; in reverse hexagonal phase,27 days
same,time for which sCT conformational stability is maintained,[6]; solubilized within hexagonal mesophases,more than 20 days
same,plasma levels of calcium,[7],significantly reduced
cytochrome C: intermediate sized protein released from cubic phase [reference compound],time in which the bulk of the release occurred,[2],a week
B1,time in which the bulk of the release occurred,[2],a week
